B1: Uncharacterized protein C12orf50 (Homo sapiens), Q8NA57 (parent)
chain: MEMQQNCSISCFWETQPLGCVKISCIFYHSKPRNINGLFLPPSSNITLQKEIQEGIPLQSQSQEPLKPQENISRPIHHPLVLKTNFEEEEEVDEQNDASSLWTKTPEEIEEKRAIKEMCYKSGEYYRFHTPPDILSSKSMTPTAEKQLEKPLENGSELQEGDSLTVPTKLSQYERQGEIKTSLHGKPKTDIAAFENGGGDCYVPQRVIFLGVDESEALTEEKEITISKCSNTKDNKDSPHPKHSLTTRLVPTTHVLNATENISMKCREDPSSMNDVQPVKKPHFKGVKKRKWIYDEPQNFPNSGMQRAVQAPRPQNKMSYHRNNKNRNAENASYIHVQRDAVRTVALNAPSRSRPTHGSYNKVHANREPKPNLSPDKYTSTSYNDSAWRKRIPFSKTYSKSEKIYPEPRRNGSK
partner: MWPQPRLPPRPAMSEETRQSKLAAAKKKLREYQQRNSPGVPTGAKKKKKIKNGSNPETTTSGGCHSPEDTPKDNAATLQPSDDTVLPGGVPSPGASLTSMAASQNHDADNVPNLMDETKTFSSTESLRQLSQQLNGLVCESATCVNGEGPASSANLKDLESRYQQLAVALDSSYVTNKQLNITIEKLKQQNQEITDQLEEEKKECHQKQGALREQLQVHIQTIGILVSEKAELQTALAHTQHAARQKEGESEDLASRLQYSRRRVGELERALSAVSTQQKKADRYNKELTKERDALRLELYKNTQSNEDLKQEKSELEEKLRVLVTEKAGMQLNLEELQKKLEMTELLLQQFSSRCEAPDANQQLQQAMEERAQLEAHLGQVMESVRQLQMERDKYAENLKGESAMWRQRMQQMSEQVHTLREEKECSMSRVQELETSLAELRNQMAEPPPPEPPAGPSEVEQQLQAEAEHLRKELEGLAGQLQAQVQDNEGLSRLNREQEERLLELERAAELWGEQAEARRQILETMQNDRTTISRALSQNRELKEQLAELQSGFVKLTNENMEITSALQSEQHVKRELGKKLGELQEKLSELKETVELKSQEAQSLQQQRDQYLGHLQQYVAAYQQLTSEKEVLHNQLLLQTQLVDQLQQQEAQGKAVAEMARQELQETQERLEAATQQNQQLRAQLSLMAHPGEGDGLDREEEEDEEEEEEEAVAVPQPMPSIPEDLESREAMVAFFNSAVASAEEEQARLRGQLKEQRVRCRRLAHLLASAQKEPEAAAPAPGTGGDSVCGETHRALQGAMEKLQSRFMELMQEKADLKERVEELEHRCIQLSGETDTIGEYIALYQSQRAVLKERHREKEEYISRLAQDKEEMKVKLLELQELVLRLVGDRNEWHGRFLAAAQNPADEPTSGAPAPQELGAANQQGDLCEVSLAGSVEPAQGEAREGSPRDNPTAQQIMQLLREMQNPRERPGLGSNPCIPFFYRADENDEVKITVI
B2: Fibronectin type III and SPRY domain-containing protein 2 (Homo sapiens), A1L4K1 (parent)
chain: MEEESGEELGLDRSTPKDFHFYHMDLYDSEDRLHLFPEENTRMRKVVQAEMANESRGAGDGKAQRDLQEEVDELVHLYGLEDDHELGDEFVDENIPRTGVSEYPPYMMKRRDPAREQRDWRLSGEAAEAEDLGFGGWGSAGQCQDLREAYRYTHGRASEEYECYVIPEEEDEEEAADVFCVTCKTPIRAFQKVFDEHKEHEVIPLNEALESAKDEIHKNMYKLEKQIIEMENFANHLEEVFITVEENFGKQEQNFESHYNEILETLAQKYEEKIQALGEKKKEKLEALYGQLVSCGENLDTCKELMETIEEMCHEEKVDFIKDAVAMADRLGKFLKTKTDVEISAQPEFEDQTLDFSDVEQLMGSINTIPAPSAPVINPQVPNSATGSSVRVCWSLYSDDTVESYQLSYRPVQDSSPGTDQAEFTVTVKETYCSVTNLVPNTQYEFWVTAHNRAGPSPSSERAVYMTAPSPPIIKTKEIRSCEEAVLICWESGNLNPVDSYTVELTQAESPEASGVTESVVGIPTCESVVQLQPGRSYIIYVRALNMGGPSVRSEPATVHTIGSYFRLNKDTCHPWLTISEDGLTAVRSERRTPARELSPSDTHFTRCVAVMGNLIPVRGHHYWEVEVDEHLDYRVGVAFADVRKQEDLGANCLSWCMRHTFASSRHKYEFLHNRTTPDIRITVPPKKIGILLDYEHSKLSFFNVDLSQHLYTFSCQLHEFVHPCFSLEKPGCLKVHNGISMPKHVTFY
partner: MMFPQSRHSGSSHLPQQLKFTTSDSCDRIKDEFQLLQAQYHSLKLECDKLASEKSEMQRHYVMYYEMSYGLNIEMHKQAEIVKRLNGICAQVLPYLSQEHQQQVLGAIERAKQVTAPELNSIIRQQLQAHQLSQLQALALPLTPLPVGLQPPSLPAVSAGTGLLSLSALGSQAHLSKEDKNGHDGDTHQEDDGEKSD
B3: Microtubule-associated tumor suppressor candidate 2 (Homo sapiens), Q5JR59-3 (parent)
chain: MGHCCCKPYNCLQCLDKTNESALVKEKELSIELANIRDEVAFHTAKCEKLQKEKEELERRFEDEVKRLGWQQQAELQELEERLQLQFEAEMARLQEEHGDQLLSIRCQHQEQVEDLTASHDAALLEMENNHTVAITILQDDHDHKVQELMSTHELEKKELEENFEKLRLSLQDQVDTLTFQSQSLRDRARRFEEALRKNTEEQLEIALAPYQHLEEDMKSLKQVLEMKNQQIHEQEKKILELEKLAEKNIILEEKIQVLQQQNEDLKARIDQNTVVTRQLSEENANLQEYVEKETQEKKRLSRTNEELLWKLQTGDPTSPIKLSPTSPVYRGSSSGPSSPARVSTTPR
partner: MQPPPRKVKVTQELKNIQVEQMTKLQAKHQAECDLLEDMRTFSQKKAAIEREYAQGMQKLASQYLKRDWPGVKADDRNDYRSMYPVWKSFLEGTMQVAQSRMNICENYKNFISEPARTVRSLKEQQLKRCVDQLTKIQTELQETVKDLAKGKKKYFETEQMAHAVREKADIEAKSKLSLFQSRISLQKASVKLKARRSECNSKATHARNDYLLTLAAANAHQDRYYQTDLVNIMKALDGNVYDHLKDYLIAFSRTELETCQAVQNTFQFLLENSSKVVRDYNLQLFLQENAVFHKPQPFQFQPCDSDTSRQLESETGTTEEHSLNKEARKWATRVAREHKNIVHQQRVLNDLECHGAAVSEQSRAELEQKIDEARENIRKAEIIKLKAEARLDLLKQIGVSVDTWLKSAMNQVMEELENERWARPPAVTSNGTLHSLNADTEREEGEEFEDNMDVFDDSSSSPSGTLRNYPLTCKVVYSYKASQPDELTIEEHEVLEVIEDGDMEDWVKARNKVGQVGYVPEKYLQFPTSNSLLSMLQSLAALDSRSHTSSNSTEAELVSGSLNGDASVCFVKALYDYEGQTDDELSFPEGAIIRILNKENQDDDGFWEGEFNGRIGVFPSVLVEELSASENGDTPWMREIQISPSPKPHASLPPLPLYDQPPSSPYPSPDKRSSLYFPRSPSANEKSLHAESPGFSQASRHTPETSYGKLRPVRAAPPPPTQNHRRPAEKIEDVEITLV
B4: Protein DBF4 homolog A (Homo sapiens), Q9UBU7 (parent)
chain: MNSGAMRIHSKGHFQGGIQVKNEKNRPSLKSLKTDNRPEKSKCKPLWGKVFYLDLPSVTISEKLQKDIKDLGGRVEEFLSKDISYLISNKKEAKFAQTLGRISPVPSPESAYTAETTSPHPSHDGSSFKSPDTVCLSRGKLLVEKAIKDHDFIPSNSILSNALSWGVKILHIDDIRYYIEQKKKELYLLKKSSTSVRDGGKRVGSGAQKTRTGRLKKPFVKVEDMSQLYRPFYLQLTNMPFINYSIQKPCSPFDVDKPSSMQKQTQVKLRIQTDGDKYGGTSIQLQLKEKKKKGYCECCLQKYEDLETHLLSEQHRNFAQSNQYQVVDDIVSKLVFDFVEYEKDTPKKKRIKYSVGSLSPVSASVLKKTEQKEKVELQHISQKDCQEDDTTVKEQNFLYKETQETEKKLLFISEPIPHPSNELRGLNEKMSNKCSMLSTAEDDIRQNFTQLPLHKNKQECILDISEHTLSENDLEELRVDHYKCNIQASVHVSDFSTDNSGSQPKQKSDTVLFPAKDLKEKDLHSIFTHDSGLITINSSQEHLTVQAKAPFHTPPEEPNECDFKNMDSLPSGKIHRKVKIILGRNRKENLEPNAEFDKRTEFITQEENRICSSPVQSLLDLFQTSEEKSEFLGFTSYTEKSGICNVLDIWEEENSDNLLTAFFSSPSTSTFTGF
B5: Cyclin-dependent kinase 2-interacting protein (Homo sapiens), Q9BW66 (parent)
chain: MEAKTLGTVTPRKPVLSVSARKIKDNAADWHNLILKWETLNDAGFTTANNIANLKISLLNKDKIELDSSSPASKENEEKVCLEYNEELEKLCEELQATLDGLTKIQVKMEKLSSTTKGICELENYHYGEESKRPPLFHTWPTTHFYEVSHKLLEMYRKELLLKRTVAKELAHTGDPDLTLSYLSMWLHQPYVESDSRLHLESMLLETGHRAL
partner: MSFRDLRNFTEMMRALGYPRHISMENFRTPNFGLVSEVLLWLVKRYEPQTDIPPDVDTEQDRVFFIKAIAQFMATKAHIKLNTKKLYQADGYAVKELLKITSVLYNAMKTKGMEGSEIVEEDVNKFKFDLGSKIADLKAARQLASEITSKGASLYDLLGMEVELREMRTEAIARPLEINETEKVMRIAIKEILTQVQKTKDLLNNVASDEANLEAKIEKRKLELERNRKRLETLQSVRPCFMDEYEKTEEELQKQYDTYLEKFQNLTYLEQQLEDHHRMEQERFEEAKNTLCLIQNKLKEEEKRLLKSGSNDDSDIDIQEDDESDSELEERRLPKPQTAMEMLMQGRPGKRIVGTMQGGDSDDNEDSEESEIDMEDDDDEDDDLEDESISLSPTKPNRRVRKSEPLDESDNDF

Variants of: B1
Settings: with goga2_human GOLGA2, Q08379

effect of a mutation on the interaction	Variant
with no effect	Y334C
disrupting interaction strength	W292R
with no effect	Q306R

Variants of: B2
Settings: with tle5_human TLE5, Q08117

effect of a mutation on the interaction	Variant
with no effect	E720K
with no effect	K333T

Variants of: B3
Settings: with fcsd2_human FCHSD2, O94868

effect of a mutation on the interaction	Variant
with no effect	A89V

Variants of: B4
Settings: with cdc7_human CDC7, O00311

effect of a mutation on the interaction	Variant
with no effect	L306I
with no effect	K579E
with no effect	I526V

Variants of: B5
Settings: with clua1_human CLUAP1, Q96AJ1

effect of a mutation on the interaction	Variant
disrupting interaction strength	R164H

Variants of: B5
Settings: with clua1_human CLUAP1, Q96AJ1
Remark: another data set of the same source

effect of a mutation on the interaction	Variant
with no effect	D177N

From IntAct's records for PubMed 31515488
